Assay results taken from patent publication US20230407373A1 (priority 2020, published 2023).
Read-outs that look alike come from different tables or passages of the source.

System: HCoV-OC43 gRNA and sgRNA
Type: binding
Details: tested against no-probe control, FDR<10%

| Molecule | target (unweighted spectral count, OC43 Probe II capture) (24 hpi, type n_24_v) | target (unweighted spectral count, OC43 Probe II capture) (36 hpi, type n_36_v) |
| --- | --- | --- |
| DDX21 (protein, UniProt Q9NR30 1-783, looked up) Nucleolar RNA helicase 2: MPGKLRSDAGLESDTAMKKGETLRKQTEEKEKKEKPKSDKTEEIAEEEETVFPKAKQVKKKAEPSEVDMNSPKSKKAKKKEEPSQNDISPKTKSLRKKKEPIEKKVVSSKTKKVTKNEEPSEEEIDAPKPKKMKKEKEMNGETREKSPKLKNGFPHPEPDCNPSEAASEESNSEIEQEIPVEQKEGAFSNFPISEETIKLLKGRGVTFLFPIQAKTFHHVYSGKDLIAQARTGTGKTFSFAIPLIEKLHGELQDRKRGRAPQVLVLAPTRELANQVSKDFSDITKKLSVACFYGGTPYGGQFERMRNGIDILVGTPGRIKDHIQNGKLDLTKLKHVVLDEVDQMLDMGFADQVEEILSVAYKKDSEDNPQTLLFSATCPHWVFNVAKKYMKSTYEQVDLIGKKTQKTAITVEHLAIKCHWTQRAAVIGDVIRVYSGHQGRTIIFCETKKEAQELSQNSAIKQDAQSLHGDIPQKQREITLKGFRNGSFGVLVATNVAARGLDIPEVDLVIQSSPPKDVESYIHRSGRTGRAGRTGVCICFYQHKEEYQLVQVEQKAGIKFKRIGVPSATEIIKASSKDAIRLLDSVPPTAISHFKQSAEKLIEEKGAVEALAAALAHISGATSVDQRSLINSNVGFVTMILQCSIEMPNISYAWKELKEQLGEEIDSKVKGMVFLKGKLGVCFDVPTASVTEIQEKWHDSRRWQLSVATEQPELEGPREGYGGFRGQREGSRGFRGQRDGNRRFRGQREGSRGPRGQRSGGGNKSNRSQNKGQKRSFSKAFGQ | 7 |  |
| RBFOX2 (protein, UniProt O43251 1-390, looked up) RNA binding protein fox-1 …: MQNEPLTPGYHGFPARDSQGNQEPTTTPDAMVQPFTTIPFPPPPQNGIPTEYGVPHTQDYAGQTGEHNLTLYGSTQAHGEQSSNSPSTQNGSLTTEGGAQTDGQQSQTQSSENSESKSTPKRLHVSNIPFRFRDPDLRQMFGQFGKILDVEIIFNERGSKGFGFVTFENSADADRAREKLHGTVVEGRKIEVNNATARVMTNKKMVTPYANGWKLSPVVGAVYGPELYAASSFQADVSLGNDAAVPLSGRGGINTYIPLISLPLVPGFPYPTAATTAAAFRGAHLRGRGRTVYGAVRAVPPTAIPAYPGVVYQDGFYGADLYGGYAAYRYAQPATATAATAAAAAAAAYSDGYGRVYTADPYHALAPAASYGVGAVASLYRGGYSRFAPY | 4 | 4 |
| KRT6A (protein, UniProt P02538 2-564, looked up) Keratin, type II cytoskeletal …: ASTSTTIRSHSSSRRGFSANSARLPGVSRSGFSSVSVSRSRGSGGLGGACGGAGFGSRSLYGLGGSKRISIGGGSCAISGGYGSRAGGSYGFGGAGSGFGFGGGAGIGFGLGGGAGLAGGFGGPGFPVCPPGGIQEVTVNQSLLTPLNLQIDPTIQRVRAEEREQIKTLNNKFASFIDKVRFLEQQNKVLETKWTLLQEQGTKTVRQNLEPLFEQYINNLRRQLDSIVGERGRLDSELRGMQDLVEDFKNKYEDEINKRTAAENEFVTLKKDVDAAYMNKVELQAKADTLTDEINFLRALYDAELSQMQTHISDTSVVLSMDNNRNLDLDSIIAEVKAQYEEIAQRSRAEAESWYQTKYEELQVTAGRHGDDLRNTKQEIAEINRMIQRLRSEIDHVKKQCANLQAAIADAEQRGEMALKDAKNKLEGLEDALQKAKQDLARLLKEYQELMNVKLALDVEIATYRKLLEGEECRLNGEGVGQVNISVVQSTVSSGYGGASGVGSGLGLGGGSSYSYGSGLGVGGGFSSSSGRAIGGGLSSVGGGSSTIKYTTTSSSSRKSYKH | 4 |  |
